B1: 4mGRFT (4mG) (mGRFT-GlyThrGly-mGRFT-GlyThrGly-mGRFT-GlyThrGly-mGRFT) (designed binder)
chain: SSTHRKFGGSGGSPFSGSGLSSIAVRSGSYLDAIIIDGVHHGGSGGNLSPTFTFGSGEYISNMTIRSGDYIDNISFETNMGRRFGPYGGSGGSANTLSNVKVIQINGSAGDYLDSLDIYYEQYGTGSSTHRKFGGSGGSPFSGSGLSSIAVRSGSYLDAIIIDGVHHGGSGGNLSPTFTFGSGEYISNMTIRSGDYIDNISFETNMGRRFGPYGGSGGSANTLSNVKVIQINGSAGDYLDSLDIYYEQYGTGSSTHRKFGGSGGSPFSGSGLSSIAVRSGSYLDAIIIDGVHHGGSGGNLSPTFTFGSGEYISNMTIRSGDYIDNISFETNMGRRFGPYGGSGGSANTLSNVKVIQINGSAGDYLDSLDIYYEQYGTGSSTHRKFGGSGGSPFSGSGLSSIAVRSGSYLDAIIIDGVHHGGSGGNLSPTFTFGSGEYISNMTIRSGDYIDNISFETNMGRRFGPYGGSGGSANTLSNVKVIQINGSAGDYLDSLDIYYEQY
B2: 2mGRFT (2mG) (mGRFT-GlyThrGly-mGRFT) (designed binder)
chain: SSTHRKFGGSGGSPFSGSGLSSIAVRSGSYLDAIIIDGVHHGGSGGNLSPTFTFGSGEYISNMTIRSGDYIDNISFETNMGRRFGPYGGSGGSANTLSNVKVIQINGSAGDYLDSLDIYYEQYGTGSSTHRKFGGSGGSPFSGSGLSSIAVRSGSYLDAIIIDGVHHGGSGGNLSPTFTFGSGEYISNMTIRSGDYIDNISFETNMGRRFGPYGGSGGSANTLSNVKVIQINGSAGDYLDSLDIYYEQY
B3: 2mGRFT^long (2mG3) (mGRFT-GlyThrGlyGlyThrGlyGlyThrGly-mGRFT) (designed binder)
chain: SSTHRKFGGSGGSPFSGSGLSSIAVRSGSYLDAIIIDGVHHGGSGGNLSPTFTFGSGEYISNMTIRSGDYIDNISFETNMGRRFGPYGGSGGSANTLSNVKVIQINGSAGDYLDSLDIYYEQYGTGGTGGTGSSTHRKFGGSGGSPFSGSGLSSIAVRSGSYLDAIIIDGVHHGGSGGNLSPTFTFGSGEYISNMTIRSGDYIDNISFETNMGRRFGPYGGSGGSANTLSNVKVIQINGSAGDYLDSLDIYYEQY
notes: also called 2mGRFT3; 2mrG3
B4: 3mGRFT (3mG) (mGRFT-GlyThrGly-mGRFT-GlyThrGly-mGRFT) (designed binder)
chain: SSTHRKFGGSGGSPFSGSGLSSIAVRSGSYLDAIIIDGVHHGGSGGNLSPTFTFGSGEYISNMTIRSGDYIDNISFETNMGRRFGPYGGSGGSANTLSNVKVIQINGSAGDYLDSLDIYYEQYGTGSSTHRKFGGSGGSPFSGSGLSSIAVRSGSYLDAIIIDGVHHGGSGGNLSPTFTFGSGEYISNMTIRSGDYIDNISFETNMGRRFGPYGGSGGSANTLSNVKVIQINGSAGDYLDSLDIYYEQYGTGSSTHRKFGGSGGSPFSGSGLSSIAVRSGSYLDAIIIDGVHHGGSGGNLSPTFTFGSGEYISNMTIRSGDYIDNISFETNMGRRFGPYGGSGGSANTLSNVKVIQINGSAGDYLDSLDIYYEQY
B5: monomeric griffithsin mGRFT (1GS-S, PDB ID 3LL2) (designed binder)
chain: SSTHRKFGGSGGSPFSGSGLSSIAVRSGSYLDAIIIDGVHHGGSGGNLSPTFTFGSGEYISNMTIRSGDYIDNISFETNMGRRFGPYGGSGGSANTLSNVKVIQINGSAGDYLDSLDIYYEQY
notes: also called IGS-S; GRFT monomer

What was measured:
[1] = molecular target: HIV-1 subtype C envelope CAP206.8 (HIV-1 subtype C); assay: cell-based or functional assay
[2] = molecular target: HIV-1 subtype A envelope Q23.17 (HIV-1 subtype A); assay: cell-based or functional assay
[3] = molecular target: HIV-1 subtype B envelope QH0692.42 (HIV-1 subtype B); assay: cell-based or functional assay
[4] = molecular target: HIV-1 subtype C envelope Du179.14 (HIV-1 subtype C); assay: cell-based or functional assay
[5] = molecular target: HIV-1 subtype C envelope Du156.12 (HIV-1 subtype C); assay: cell-based or functional assay
[6] = molecular target: HIV-1 subtype B envelope PVO.4 (HIV-1 subtype B); assay: cell-based or functional assay
[7] = molecular target: HIV-1 subtype B envelope CAAN5342.A2 (HIV-1 subtype B); assay: cell-based or functional assay
[8] = molecular target: HIV-1 subtype C envelope COT6.15 (HIV-1 subtype C); assay: cell-based or functional assay
[9] = molecular target: HIV-1 subtype A envelope Q168.a2 (HIV-1 subtype A); assay: cell-based or functional assay
[10] = molecular target: HIV-1 subtype C envelope DU151.2 (HIV-1 subtype C); assay: cell-based or functional assay
[11] = molecular target: HIV-1 subtype B envelope JR-FL (HIV-1 subtype B); assay: cell-based or functional assay
Env of HIV-1RF virus = Env of HIV-1RF virus (HIV-1 RF); assay: cell-based or functional assay
[12] = molecular target: GRFT-resistant envelope Du156R18 (R); assay: cell-based or functional assay
[13] = molecular target: GRFT-resistant envelope Du179 GRFT c17 (R); assay: cell-based or functional assay
[14] = molecular target: HIV envelope glycoprotein gp120 (HIV); assay: ITC, 30 °C, tandemer (180 µM) titrated into gp120 (2.5 µM)
[15] = molecular target: HIV envelope glycoprotein gp120 (HIV); assay: ITC
[16] = molecular target: HIV envelope glycoprotein gp120 (HIV); assay: ITC, 30 °C, lectin titrated into gp120

Binder | IC50 (pseudovirus neutralization, JC53bl-13 cells) [1] | IC50 (pseudovirus neutralization, JC53bl-13 cells) [2] | IC50 (pseudovirus neutralization, JC53bl-13 cells) [3] | IC50 (pseudovirus neutralization, JC53bl-13 cells) [4] | IC50 (pseudovirus neutralization, JC53bl-13 cells) [5] | IC50 (pseudovirus neutralization, JC53bl-13 cells) [6] | IC50 (pseudovirus neutralization, JC53bl-13 cells) [7] | IC50 (pseudovirus neutralization, JC53bl-13 cells) [8] | IC50 (pseudovirus neutralization, JC53bl-13 cells) [9] | IC50 (pseudovirus neutralization, JC53bl-13 cells) [10] | IC50 (pseudovirus neutralization, JC53bl-13 cells) [11] | Anti-HIV EC50 (XTT cytopathicity assay, HIV-1RF, CEM-SS cells) (Env of HIV-1RF virus) | IC50 (pseudovirus neutralization, JC53bl-13 cells) [12] | fold reduction in activity between the WT (Du156.12) and R viruses [12] | IC50 (pseudovirus neutralization, JC53bl-13 cells) [13] | fold reduction in activity between the WT (Du179.14) and R viruses [13] | Kd [14] | TΔS [14] | ΔG [14] | ΔH [14] | also measured
B1 | 0.164 nM | 0.276 nM | 0.17 nM | 0.0934 nM | 0.0887 nM | 0.185 nM | 0.232 nM | 0.273 nM | 0.273 nM | 0.3 nM | 0.287 nM | 1.2 pM | 0.688 nM | 8 fold | 2.08 nM | 22 fold | – | – | – | – | –
B2 | 0.178 nM | 7.26 nM | 0.202 nM | 0.158 nM | 0.0182 nM | 0.301 nM | 5.27 nM | 1.46 nM | 1.55 nM | 0.694 nM | 2.09 nM | 2.7 pM | 27.1 nM | 1490 fold | 36 nM | 228 fold | 5 nM | -59.9 kcal/mol | -11.6 kcal/mol | -69.6 kcal/mol | enthalpy/entropy compensation (ΔH/ΔS) ratio [15]: 1.16
B3 | 0.696 nM | 7.16 nM | 0.513 nM | 0.144 nM | 0.0616 nM | 0.558 nM | 16.9 nM | 2.52 nM | 5.28 nM | 1.7 nM | 5.77 nM | 2.6 pM | 26 nM | 422 fold | 34.4 nM | 239 fold | 3 nM | -35.4 kcal/mol | -11.8 kcal/mol | -47.2 kcal/mol | enthalpy/entropy compensation (ΔH/ΔS) ratio [15]: 1.33
B4 | 0.181 nM | 0.462 nM | 0.223 nM | 0.124 nM | 0.0794 nM | 0.27 nM | 0.326 nM | 0.412 nM | 0.331 nM | 0.308 nM | 0.325 nM | 1 pM | 1.11 nM | 14 fold | 3.86 nM | 31 fold | 3 nM | -62.7 kcal/mol | -11.8 kcal/mol | -74.4 kcal/mol | enthalpy/entropy compensation (ΔH/ΔS) ratio [15]: 1.19
B5 | – | – | – | – | – | – | – | – | – | – | – | 119000 pM | – | – | – | – | – | – | – | – | Kd [16]: 112 nM; TΔS [16]: -26 kcal/mol; ΔG [16]: -9.47 kcal/mol; ΔH [16]: -35.5 kcal/mol
